Laboratory results as given in publication PMC5993284, “Peptide inhibitors of the anaphase promoting-complex that cause sensitivity to microtubule poison” (PLoS ONE, 2018).
“Also recorded” adds a separate entry of the source.

Legend:
APC/C [1] = assay: Biotinylated peptide pull-down of purified APC/C, Western blot; assay type: binding, Saccharomyces cerevisiae; details: 20 μM biotinylated peptide, purified yeast APC/C, 1 h at 4 °C, streptavidin/Avidin beads, n = 3
Protocol: For APC/C purification, the APC/C which contain Cdc16-TAP-tag was isolated from 2 mL arrested yeast lysate by 120 μL IgG sepharose 6 Fast Flow beads (GE Healthcare Life Sciences) and incubate for 2 h at 4 °C on a rotating wheel. Beads were collected washed with 5 mL of APC/C wash buffer (200 mM Hepes pH8.0, 150 mM NaCl, 10% glycerol). Beads were resuspended in 150 μL of APC/C wash buffer contain 17.6 units of AcTEV protease (Invitrogen, Carlsbad, CA) at 4°C for 3 h with pipetting every 20 minutes. The purified APC/C was collected in the flow-through.
For APC/C binding assays, 20 μM biotinylated peptides or 20 μM peptides only as a negative control were incubated with purified APC/C and 100 μL APC/C wash buffer which contains phosphatase inhibitors (200 mM Hepes pH 8.0, 150 mM NaCl, 10% glycerol, 10 mM NaF, 1 mM NaVO4, 5 mM Na-pyrophosphate, 10 mM 2-glycerol phosphate) for 1 h at 4 °C. The mixtures were applied to 120 μL streptavidin beads (Dynabeads MyOne Streptavidin T1, Invitrogen) for 30 min at 4 °C with gentle pipetting every 10 min. Beads were washed with 1 mL of PBST buffer (Phosphate buffer saline and 0.1% Tween 20) three times SDS-PAGE protein sample was added directly. For APC/C binding competition experiments, the biotinylated peptide and 10-fold excess non-biotinylated peptides were added to purified APC/C at same time.
Free D-biotin in 10% DMSO was used for the control binding assays. For pre-coating APC/C with biotin, a modified APC/C purification was performed. 2 mL yeast lysate was incubated with 120 μL IgG Sepharose beads and additional 20.4 μM free biotin or non-biotin solvent as a positive control was added and samples were incubated for 2 h at 4 °C on a rotating wheel. Purified pre-coated APC/C was then removed from the IgG Sepharose following the standard purification procedure. 20 μM biotinylated peptides or 20 μM peptides as a negative control were incubated with pre-coated APC/C and 100 μL APC/C wash buffer which contain phosphatase inhibitors for 1 h at 4 °C. In addition, 20 μM biotinylated peptide was added and incubated with pre-coated APC/C in a non-biotin containing solvent as positive control. Pre-coated APC/C binding procedures were same as above. For pre-coating streptavidin beads with biotin, streptavidin beads were washed in the presence of 10.2 nmol/mL D-biotin in PBST buffer or non-biotin solvent as a positive control before use. Pre-coated streptavidin beads were incubated with purified APC/C-peptide complexes with an extra […] biotin for 30 minutes with gentle pipetting every 10 min at 4 °C.
Proteins were separated in SDS-PAGE gels and then were transferred to PVDF membrane. Blocking was performed by incubating samples in 20 mL PBST with 5% milk at 4 °C. Rabbit anti-tap (Thermo, CAB1001) was used as primary antibodies at a 1:1000 dilution and incubated for 2 hours at RT. Anti-rabbit HRP (Jackson, USA) was then used as secondary antibody at 1:5000 dilution and incubate for 1 hr at RT. Chemiluminescence signals were detected using an ImageQuant LAS 4000 (GE Healthcare Bio-Sciences, USA). For cell cycle timing Western blots anti-MYC and anti-Actin antibodies were employed (ABCAM, UK).

APC/C^Cdc20 = target: T1, APC/C^Cdc20 (Saccharomyces cerevisiae, UniProt P16522+P53886); assay: biochemical; assay type: biochemical; details: 220 μM peptide; 35S-Pds1 substrate; time course 0-60 minutes; vs buffer only; n = 3
T1 construct: constructed within full-length Cdc20 by site-directed mutagenesis for analysis in vitro in the APC/C^Cdc20 assay; The APC/C was purified for enzyme assays from 1 mL of TAP-tagged Cdc16 yeast extract (SCSY51); made in house; host or cells: Cdc20: in vitro transcription/translation in rabbit reticulocyte lysate, used unpurified; APC/C: S. cerevisiae strain SCSY51 (Cdc16-TAP) extract, captured on IgG magnetic beads
Protocol: (§1) Full-length, radio-labeled protein purifications were preformed as previously described. ^35S-Pds1 was prepared in a 500 μL IVT/T (In Vitro Transcription/Translation) reaction (Promega, USA), which contained 400 μL rabbit reticulocyte lysate, 20 μL of L-^35S-methionine (PerkinElmer, USA), 10 μg of plasmid DNA, and the remaining volume as nuclease-free ddH2O as recommended by the manufacturer. The reaction mixture was incubated for 2 hours at room temperature and gently mixed every 30 minutes. The reaction was added to pre-equilibrated IgG Sepharose beads (GE Healthcare, USA) in Bio-spin disposable chromatography columns (Bio-Rad, USA) for binding for 2 hours at room temperature. To ensure efficient binding, the beads were re-suspended several times every 30 minutes. After binding, the beads were washed with 5 mL wash buffer, containing 200 mM 4-(2-hydroxyethyl)-1-piperazineethanesulfonic acid (HEPES) at pH 8.0, 150 mM NaCl, 10% (v/v) glycerol, and 1 mM dithiothreitol (DTT). The ^35S-Pds1 was cleaved from the beads using TEV (Tobacco Etch Virus) protease in 1x TEV buffer (Invitrogen, USA) for 2 hours at room temperature, and the mixture was re-suspended several times every 30 minutes to promote efficient cleavage. The elution was collected and concentrated by employing an Amicon Ultra filter column (Millipore, Ireland). The concentrated ^35S-Pds1 was collected in a new tube, and stored at -20 °C.
(§2) The production of Cdc20 or Cdh1 was prepared by IVT/T reactions, where 16 μL of rabbit reticulocyte lysate, 20 μM L-methionine, 0.4 μg of plasmid DNA, and a volume of nuclease-free ddH2O for a total volume of 20 μL. This freshly synthesized Cdc20 or Cdh1 protein was used directly in all APC/C assays after a 1-hour synthesis reaction at room temperature. The APC/C was purified for enzyme assays from 1 mL of TAP-tagged Cdc16 yeast extract (SCSY51) where extract was mixed with 50 μL 50:50 slurry magnetic beads (Invitrogen, Norway) for 2 hours at 4 °C. After incubation, the beads were washed with 3 mL APC/C wash buffer (200 mM of HEPES, 150 mM of NaCl and 10% (v/v) of glycerol). APC/C bound to IgG magnetic beads was used directly in the enzyme assays.
(§3) APC/C assays were performed by adding the reaction contents in following order: 4.3 μL of QAH buffer, 20 μL of rabbit reticulocyte lysate containing Cdc20 or Cdh1 with or without an additional volume of recombinant checkpoint protein(s) or inhibitor peptides, 2.4 μL ubiquitin aldehyde (Boston Biochem, USA), APC/C, 16 μL pre-charged E1/E2/ATP/ubiquitin mix, and 13.3 μL of ^35S-Pds1 with QAH buffer (20 mM HEPES at pH 8.0, 100 mM NaCl, and 1 mM MgCl2). The E1/E2/ATP/ubiquitin mix were pre-charged by mixing 1 μL of E1 (Boston Biochem, USA), 1 μL of E2 (Boston Biochem, USA), 14.4 μL of ATP, 14.4 μL of […] (Boston Biochem, USA), and 17.2 μL of QAH buffer and incubated for 15 minutes at room temperature. Approximately 15 μL of samples were taken out at each time point, and the reaction was stopped by the addition of 2x protein sample buffer (125 mM Tris-HCl pH 6.8, 4% SDS, 20% glycerol, and 0.002% bromophenol blue, with 10% (final v/v) 2-mercaptoethanol added in fresh directly before use).
For inhibitor titration and time-course experiments, recombinant Bub3, Mad2, Mad3, and the Mad3-Bub3 complex were expressed and purified as previously described. […] For inhibition of APC/C the co-factor Cdc20 or Cdh1 was made fresh by IVT/T, and pure recombinant checkpoint proteins or inhibitor peptides were added to the IVT/T mixture and incubated for an additional hour at room temperature. In titrations, a dilution series of the checkpoint protein(s) were made before incubation with the Cdc20 co-factor. SDS-PAGE was performed using stand protocols (BioRad, USA).

APC/C^Cdh1 = APC/C^Cdh1 enzyme assay (ubiquitination of 35S-Pds1); assay type: biochemical, Saccharomyces cerevisiae; details: 220 μM peptide; 35S-Pds1 substrate; time course 0-60 minutes; vs buffer; n = 3
Protocol: as §1, §2
APC/C assays were performed by adding the reaction contents in following order: 4.3 μL of QAH buffer, 20 μL of rabbit reticulocyte lysate containing Cdc20 or Cdh1 with or without an additional volume of recombinant checkpoint protein(s) or inhibitor peptides, 2.4 μL ubiquitin aldehyde (Boston Biochem, USA), APC/C, 16 μL pre-charged E1/E2/ATP/ubiquitin mix, and 13.3 μL of ^35S-Pds1 with QAH buffer (20 mM HEPES at pH 8.0, 100 mM NaCl, and 1 mM MgCl2). […]

APC/C [2] = assay: APC/C activity promoted by mutant Cdc20 alleles (Pds1 remaining); assay type: biochemical, Saccharomyces cerevisiae; details: vs wild type Cdc20, n = 3
Protocol: as §2, §3
For APC/C activity assays dried-gels were exposed on a phosphor screen cassette to detect radio-labeled protein. The phosphor screen was scanned by a Typhoon phosphor-imager (GE Healthcare Bio-Sciences, USA), and radio-labeled protein bands in gels were quantified by employing the ImageQuant software (GE Healthcare Bio-Sciences, USA) according to the manufacturer’s protocols. Data were expressed as mean ± standard deviation, and was analyzed using Student’s t-test. Graphs were created using Kaliedograph 4.0 (Synergy Software, USA) and estimates of best-fit curves of a 4-parameter Hill equation were generated to obtain estimates for the median inhibitory concentrations (IC50) and Hill coefficients (Hc) using IgorPro 6.01 (Wavemetrics, USA).
By sequence alignment and amino acid homology alone, the budding yeast KILR-motif may be defined as 201-RILQ-204 (Fig 1A). However, the next residue, Tyrosine Y205 had previously been isolated in a genetic screen for spindle checkpoint by-pass alleles of Cdc20 [21], indicating this Y205 residue may be a target of the spindle checkpoint inhibition, and thus might also be a functional KILR-motif residue that contributes to APC/C activation. To clarify this possibility, we took the initial step to characterize several of the previously isolated spindle checkpoint by-pass mutant alleles of Cdc20 [21], and also Cdc20 mutants in the two highly conserved residues within the Mad2-binding motif, the aspartic acid at D197 of unknown function and the highly conserved Leucine L203 within the KILR-motif based on sequence alignment and homology. […]

Molecule	binding to APC/C (in words) (APC/C [1])	inhibition of APC/C^Cdc20 activity (in words) (APC/C^Cdc20)	inhibition of APC/C^Cdh1 activity (in words) (APC/C^Cdh1)	ability of mutant Cdc20 to promote APC/C activity (in words) (APC/C [2])
hp31: 39 amino acid residue human peptide derived from human p31^comet amino acid residues 219–258 (RNCGEDWFRPKLNYRVPSRGHKLTVTLSCGRPSIRTTAWE; UniProt Q15013 219-258, looked up, fragment)	bound to budding yeast APC/C directly; also recorded: can pull-down budding yeast APC/C at 20 μM peptide	inhibited both budding yeast APC/C^Cdc20; also recorded: inhibits yeast APC/C^Cdc20	inhibited both budding yeast APC/C^Cdc20 (Fig 13B) and APC/C^Cdh1; also recorded: inhibits yeast APC/C^Cdh1	
Cdc20-L203A: mutant allele of Cdc20 in the conserved KILR-motif (protein, UniProt P26309 1-610, looked up, variant L203A) APC/C activator protein CDC20: MPESSRDKGNAAISGNRSVLSIASPTKLNILSSDWSRNQGKVSKNSLKRSSSLNIRNSKRPSLQASANSIYSRPKITIGAPPLIRRDSSFFKDEFDAKKDKATFSAYSSRSYPTIGSESVVSQTSLSQPTTSREVDEQFTVAADRYIPILQGASQNKVDPETLHEALPPPNASPISHLRAQTKIVFKQNVAEACGLDMNKRIAQYMPEPPKCSSLRQKSYIMKKRTHYSYQQEQKIPDLIKLRKINTNPERILDAPGFQDDFYLNLLSWSKKNVLAIALDTALYLWNATTGDVSLLTDFENTTICSVTWSDDDCHISIGKEDGNTEIWDVETMSLIRTMRSGLGVRIGSLSWLDTLIATGSRSGEIQINDVRIKQHIVSTWAEHTGEVCGLSYKSDGLQLASGGNDNTVMIWDTRTSLPQFSKKTHTAAVKALSWCPYSPNILASGGGQTDKHIHFWNSITGARVGSINTGSQVSSLHWGQSHTSTNGGMMNKEIVATGGNPENAISVYNYETKFKVAEVVHAHEARICCSQLSPDGTTLATVGGDENLKFYKIFDPRCTGRSREDGLMDGMLGLIGKEGCRTNDKENRSKNSSEIHTRRPSSTSQYLIR				displayed decreased APC/C activity; also recorded: had no APC/C activity; also recorded: consistently displayed a decrease in APC activity
C-box2: C-box2 (Cdc20 130–196) containing the region between the C-box and the Mad2-binding motif (peptide, UniProt P26309 130-196, looked up, fragment) TTSREVDEQFTVAADRYIPILQGASQNKVDPETLHEALPPPNASPISHLRAQTKIVFKQNVAEACGL		observed to inhibit APC/C^Cdc20 activity; also recorded: A significant level of APC/C^Cdc20 inhibition was observed only in the presence of the C-box2 peptide	also inhibited APC/C^Cdh1 activity; also recorded: A significant level of APC/C^Cdh1 inhibition was observed	
